Positions count from the first letter of the chain named.
B1: TM-1: anti-TMEM106B monoclonal antibody; CDR-H1-3 SEQ ID NO: 2, 35, 78; CDR-L1-3 SEQ ID NO: 120, 160, 184 (antibody, V domains shown)
VH: QVQLQQSGAELVRPGTSVKVSCKASGYAFTNYLIEWVKQRPGQGLEWIGVINPGSGGTKYNEKLKGKATLTADKSSSTAYMQLSSLTSVDSAVYFCARRGYTIYDFYAMDYWGQGTSVTVSS
VL: DVLMTQTPLSLPVSLGDHASISCRSSQSIVYNNGNTYLEWYLQKPGQSPKLLIYKVSNRFSGVPDRFSGSGSGTDFTLKISRVEAEDLGVYYCFQVSHVPFTFGSGTKLEIK
B2: TM-17: anti-TMEM106B monoclonal antibody; CDR-H1-3 SEQ ID NO: 17, 51, 94; CDR-L1-3 SEQ ID NO: 132, 172, 196 (antibody, V domains shown)
VH: QVQLQQSGAELIRPGTSVKVSCKASGYAFTDYLIEWVKQRPGQGLEWIGVINPGSGGTNYNEKFKGKAKLTADKSSSTAYMQLSSLTSEDSAVYFCVRSSYGVYVAYPMDYWGQGTSVTVSS
VL: DIQMTQSPSSLSASLGERVSLTCRASQDIGSNLNWLQQEPDGTIKRLIYATSSLDSGVPKRFSGSRSGSDYSLTISSLESEDFVDYYCLQYASSPRTFGGGTKLEIK
B3: TM-26: anti-TMEM106B monoclonal antibody; CDR-H1-3 SEQ ID NO: 2, 56, 99; CDR-L1-3 SEQ ID NO: 139, 176, 203 (antibody, V domains shown)
VH: QVQLQQSGAELIRPGTSVKVSCKASGYAFTNYLIEWVKKRPGQGLEWIGVINPGSGITNYNEKFKGKATLTADKSSSTAYMQLSSLTSEDSAVYFCARSDFITTVVADYWGQGTTVTVSS
VL: DIVVTQTPLSLPVSFGDQVSISCRSSQSLTNYYGNTYLSWYLHKPGQSPQLLIYGISNRFSGVPDRFSGSGSGTDFTLKISTIKPEDLGMYYCLQGTHQPRTFGGGTKLEIK
B4: TM-79: anti-TMEM106B monoclonal antibody; VH SEQ ID NO: 484, VL SEQ ID NO: 519 (antibody, V domains shown)
VH: EVQLQQSGPELVKPGASVKMSCKASGYTFTNYVMHWLKQKPGQGLEWIAHITPHNDGTKYNEKFKGKATLTSDRSSSTAYMELNSLTSEDSAIYYCARSGQFGRGDYFHYWGQGTTVTVSS
VL: DIVLTQSPASLAVSLGQRATISCRASKSVSTSGSIYIHWYQQKPGQPPKLLIYLTSNLESGVPARFSGSGSGTDFTLNIHPVEEEDAATYYCQHSGELPWTFGGGARLEIK
modifications: Variable Heavy Chain -- TM-79; Variable Light Chain -- TM-79
B5: TM-82: anti-TMEM106B monoclonal antibody; VH SEQ ID NO: 487, VL SEQ ID NO: 522 (antibody, V domains shown)
VH: B3 VH with I12V, K19R, V37I, K39Q, N59D, N61S, T69R, E89D, A97T, D100P
VL: B3 VL with I2V, T30A, Y32T, K44T, Y54F, M90V, Q99P, I111M
modifications: Variable Heavy Chain -- TM-82; Variable Light Chain -- TM-82
B6: TM-24: anti-TMEM106B monoclonal antibody; CDR-H1-3 SEQ ID NO: 12, 45, 88; CDR-L1-3 SEQ ID NO: 140, 170, 204 (antibody, V domains shown)
VH: QVQLKQSGPGQVQPSQSLSITCTVSGFSLSDYGVHWVRQSPGKGLEWLGVIWNNGNTDYNAAFISRLSINKDNSKSQVFFKMTSLQADDTAIYYCVRSLRPLHFDYWGQGTTVTVSS
VL: DIVMTQSPSSLTMSVGQKVTMNCKSSQSLLNSNNQQNYLAWYQQKPGQSPKLLVYFASIRESGVPDRFIGSGSGTDFTLTINSVQAEDLADYFCQQHYSTPFTFGSGTKLEIR
B7: TM-25: anti-TMEM106B monoclonal antibody; CDR-H1-3 SEQ ID NO: 10, 57, 100; CDR-L1-3 SEQ ID NO: 137, 168, 205 (antibody, V domains shown)
VH: EVQLVESGGDLVKPGGSLRLSCAASGFTFSGYGMSWIRQTPDKRLEWVATISSGGRYTVYPDSVKGRFTMSRDNVKNTLYLQMSSLKSEDTALYYCARDNFYSYAMDYWGLGTSVTVSA
VL: DIVMTQAAFSNPVTLGTSASISCRSSKSLLHSNGITYLFWYLQKPGQSPQLLIYQMSNLASGVPDRFSSSGSGTDFTLRISRVEAEDVGVYYCAQNLELWTFGGGTKLEIK
B8: TM-32: anti-TMEM106B monoclonal antibody; CDR-H1-3 SEQ ID NO: 13, 63, 106; CDR-L1-3 SEQ ID NO: 145, 160, 200 (antibody, V domains shown)
VH: EVQLQQSGAELVRPGASVRLSCIASGFNIKDYYMYWVKQRPEQGLEWIGRIDPEDGDTEYVPKFQGKATMTADTSSNTAYLQLSSLTSEDIGVYYCTTRTWDLYYAVDNWGQGTSVTVSS
VL: B1 VL with H18Q, S28N, Y31H, N32S, Y54D, V90I, V96G
B9: TM-35: anti-TMEM106B monoclonal antibody; CDR-H1-3 SEQ ID NO: 24, 66, 109; CDR-L1-3 SEQ ID NO: 148, 160, 194 (antibody, V domains shown)
VH: QVQLQQSGPELVRPGTSVKISCKAPGYTFTRHWMQWVRQRPGQGLEWIGEILPGSNNIYYNEKVKGKATLTVDTSSSTSYMQLSSLTSEDSAVYFCARSLYDYDGVFAYWGQGTLVTVSA
VL: B1 VL with T7I, H18Q, Y31H, N32R, V96G, F101Y, S105G
B10: TM-48: anti-TMEM106B monoclonal antibody; CDR-H1-3 SEQ ID NO: 32, 74, 116; CDR-L1-3 SEQ ID NO: 155, 160, 218 (antibody, V domains shown)
VH: QVQLQQSGPELVKPGASVKLSCKASGYTFTSYDINWVKQRPGQGLEWIGWIYPRDGNTQYIEKLKGKATLTVDTSSSTAYMELHSLTSEDSAVYFCARWIFYAMDYWGQGTSVTVSS
VL: B1 VL with D17N, H18Q, Y31H, N32G, V96G, V99L, F101Y, S105G
B11: TM-54: anti-TMEM106B monoclonal antibody; VH SEQ ID NO: 464, VL SEQ ID NO: 500 (antibody, V domains shown)
VH: QVQMQQSGPVLVKPGASVTLSCKASGYTFTTYDLNWVKQRPGQGLEWIGWIYPRGGSTEYNEKFKGKATLTVDTSSSTAYMELHSLTSEDSAVYFCAKYSIYAMDYWGQGTSVTVSS
VL: B1 VL with H18Q, Y31H, N32G, V96G, F101W, S105G, I111M
modifications: Variable Heavy Chain -- TM-54; Variable Light Chain -- TM-54

These molecules were tested against GST-TMEM106B (truncated, comprising amino acids 122-210 of SEQ ID NO:1) (Homo sapiens, UniProt Q9NUM4) (assay: Pre-mix epitope binning of anti-TMEM106B antibodies (Carterra / Lake Pharma)). Conditions: competition for binding to truncated GST-TMEM106B (amino acids 122-210).
Sequence of GST-TMEM106B (truncated, comprising amino acids 122-210 of SEQ ID NO:1) (Q9NUM4 122-210): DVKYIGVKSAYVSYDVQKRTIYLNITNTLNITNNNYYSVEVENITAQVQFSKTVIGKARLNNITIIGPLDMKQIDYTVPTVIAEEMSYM
Type: binding
Parameters: key to epitope bin: Bin 1: competes for binding to the same or overlapping TMEM106B region as the TM1, TM17, TM22, TM26, TM79, and/or TM82 antibodies; Bin 2: competes for binding to the same or overlapping TMEM106B region as the TM3, TM9, TM10, TM11, TM12, TM13, TM18, TM19, TM21, TM24, TM25, TM32, TM35, TM37, TM42, TM45, TM48, TM54, TM59, TM60, TM61, and/or TM76 antibodies; Bin 3: competes for binding to the same or overlapping TMEM106B region as the TM7, TM15, TM83, and/or TM84 antibodies; Bin 4: competes for binding to the same or overlapping TMEM106B region as the TMS, TM28, TM29, TM30, TM63, TM64, TM72, TM78, TM80, TM86, and/or TM88 antibodies; Bin 5: does not bind to a truncated TMEM106B comprising amino acids 122-210 of SEQ ID NO:1
Description: (§1) Monoclonal anti-TMEM106B antibodies were immobilized to a CMD 50M chip (Xantec # SPMXCMD5OM lot# SCCMD50M0416). The running buffer was HBS-EP+ with 1 mg/mL BSA. The GST-TMEM106B (truncated, comprising amino acids 122-210 of SEQ ID NO:1) antigen was prepared at a final concentration of 55 nM (corresponding to 2 μg/mL) and mixed with the competing analyte anti-TMEM106B antibodies at a final concentration of 333 nM (corresponding to 50 μg/mL) or compared to a buffer control. Samples were injected for 5 minutes over the array and regenerated after every cycle with 1 minute of two parts Pierce IgG-Elution buffer (ThermoFisher Cat#21004) and 1 part of 10 mM Glycine, pH 2.0 (Carterra).
Anti-TMEM106B antibodies sorted into various competing bins and resulting binning profiles. […] Antibodies within Bin 3 or Bin 4 partially block Bin 2 antibodies.
as §1, with “SPMXCMD50M” for “SPMXCMD5OM”, “lmg/ml” for “1 mg/mL”, “(truncated)” for “(truncated, comprising amino acids 122-210 of SEQ ID NO:1)”, “μg/ml)” for “μg/mL)”
In the case of B1, the epitope bin is reported as “Bin 1”.
With B2 the epitope bin was “Bin 1”.
With B3 the epitope bin was “Bin 1”.
In the case of B4, the epitope bin is reported as “Bin 1”.
B5 was tested, and the epitope bin was “Bin 1”.
In the case of B6, the epitope bin is reported as “Bin 2”.
In the case of B7, the epitope bin is reported as “Bin 2”.
In the case of B8, the epitope bin is reported as “Bin 2”.
B9 was tested, and the epitope bin was “Bin 2”.
In the case of B10, the epitope bin is reported as “Bin 2”.
For B11, the epitope bin was “Bin 2”.

Same assay, conditions: epitope bin number; pre-mix binning on truncated GST-TMEM106B
For B1, the “Binding Community/Bin” value was 1.
For B2, the “Binding Community/Bin” value was 1.
For B3, the “Binding Community/Bin” value was 1.
For B4, the “Binding Community/Bin” value was 1.
For B5, the “Binding Community/Bin” value was 1.
In the case of B6, the “Binding Community/Bin” value is reported as 2.
With B7 the “Binding Community/Bin” value was 2.
For B8, the “Binding Community/Bin” value was 2.
In the case of B9, the “Binding Community/Bin” value is reported as 2.
In the case of B10, the “Binding Community/Bin” value is reported as 2.
For B11, the “Binding Community/Bin” value was 2.
